How the values were obtained:
[1] = molecular target: MT1-MMP catalytic domain
[2] = molecular target: recombinant TACE catalytic domain
[3] = molecular target: MMP9 catalytic domain
[4] = molecular target: T1, MMP7 catalytic domain
T1 sequence (P09237 whole entry, species assumed, looked up): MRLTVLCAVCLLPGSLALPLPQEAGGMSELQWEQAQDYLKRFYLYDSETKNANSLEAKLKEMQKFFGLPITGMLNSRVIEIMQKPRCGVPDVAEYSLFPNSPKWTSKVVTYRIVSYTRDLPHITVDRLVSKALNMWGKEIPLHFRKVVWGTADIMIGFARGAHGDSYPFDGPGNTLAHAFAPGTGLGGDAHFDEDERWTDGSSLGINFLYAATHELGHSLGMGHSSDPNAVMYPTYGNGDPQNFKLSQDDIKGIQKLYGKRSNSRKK

Sequence of recombinant TACE catalytic domain (P78536 215-671): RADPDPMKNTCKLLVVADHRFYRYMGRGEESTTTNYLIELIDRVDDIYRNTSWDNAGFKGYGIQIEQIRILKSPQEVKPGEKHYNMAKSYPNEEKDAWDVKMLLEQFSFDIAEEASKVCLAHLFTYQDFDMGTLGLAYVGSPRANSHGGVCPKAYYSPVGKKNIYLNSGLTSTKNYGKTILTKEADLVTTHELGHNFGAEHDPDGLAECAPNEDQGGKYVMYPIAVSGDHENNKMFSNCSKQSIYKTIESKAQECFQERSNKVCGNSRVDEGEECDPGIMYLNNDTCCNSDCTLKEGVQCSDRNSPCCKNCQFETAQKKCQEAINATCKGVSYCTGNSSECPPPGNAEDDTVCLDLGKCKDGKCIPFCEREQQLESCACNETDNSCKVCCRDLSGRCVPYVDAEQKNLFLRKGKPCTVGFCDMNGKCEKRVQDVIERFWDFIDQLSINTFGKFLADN
Sequence of MMP9 catalytic domain (P14780 20-707): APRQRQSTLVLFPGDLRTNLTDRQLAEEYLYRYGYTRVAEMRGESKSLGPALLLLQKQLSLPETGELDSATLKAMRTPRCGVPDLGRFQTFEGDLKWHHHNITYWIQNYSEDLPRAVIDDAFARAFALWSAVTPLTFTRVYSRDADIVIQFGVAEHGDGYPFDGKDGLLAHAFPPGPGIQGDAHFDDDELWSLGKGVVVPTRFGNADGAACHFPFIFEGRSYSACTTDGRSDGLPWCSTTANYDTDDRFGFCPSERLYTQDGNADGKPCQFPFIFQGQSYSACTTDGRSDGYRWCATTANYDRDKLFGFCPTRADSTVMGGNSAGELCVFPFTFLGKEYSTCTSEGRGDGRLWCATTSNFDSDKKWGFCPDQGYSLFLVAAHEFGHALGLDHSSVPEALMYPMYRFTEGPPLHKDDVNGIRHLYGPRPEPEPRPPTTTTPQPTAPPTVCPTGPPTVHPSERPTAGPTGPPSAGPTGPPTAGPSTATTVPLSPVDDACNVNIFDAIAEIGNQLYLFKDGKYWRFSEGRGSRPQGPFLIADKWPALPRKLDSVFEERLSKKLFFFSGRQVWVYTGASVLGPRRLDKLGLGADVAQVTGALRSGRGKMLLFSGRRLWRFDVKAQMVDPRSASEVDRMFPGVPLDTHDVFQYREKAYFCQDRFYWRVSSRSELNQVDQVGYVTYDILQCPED

TACE prodomain (TPD) R58A (from UniProt P78536 23-214) (domain or fragment)
IC50 of inhibition of the enzyme's hydrolysis of a fluorogenic peptide (10 nM MT1-MMP, Mca-PLGL-Dpa-AR 10 μM, 37 °C) [1]: 4.65 µM | IC50 of inhibition of the enzyme's hydrolysis of a fluorogenic peptide (10 nM TACE, 37 °C) [2]: 0.307 µM | IC50 of inhibition of the enzyme's hydrolysis of a fluorogenic peptide (10 nM MMP9, Mca-PLGL-Dpa-AR 10 μM, 37 °C) [3]: 4.34 µM

TACE prodomain double mutant R58A/C184A (TPD-DM) (from UniProt P78536 23-214) (domain or fragment)
IC50 of inhibition of the enzyme's hydrolysis of a fluorogenic peptide (10 nM TACE, 37 °C) [2]: 0.018 µM | IC50 of inhibition of the enzyme's hydrolysis of a fluorogenic peptide (10 nM MMP7, Mca-PLGL-Dpa-AR 10 μM, 37 °C) [4]: 5.44 µM

From publication PMC5159831
